The record followed here is patent publication US20210070885A1 (JIANGSU ALPHAMAB BIOPHARMACEUTICALS, published 2021).

Changes are numbered by the printed parent chain. In names and notes the source's numbering stands.

B1: Tmab-CLC5 (antibody, human IgG1, kappa, V domains shown)
VH: not shown
VL: DIQMTQSPSSLSASVGDRVTITCKASQDVSIGVAWYQQKPGKAPKLLIYSASYRYTGVPSRFSGSGSGTDFTLTISSLQPEDFATYYCQQYYIYPYTFGQGTKVEIKR
B2: Tmab-CLC6 (antibody, human IgG1, kappa, V domains shown)
VH: not shown
VL: B1 VL with Y94T
B3: Pmab-CLC2 (antibody, human IgG1, kappa, V domains shown)
VH: EVQLVESGGGLVQPGGSLRLSCAASGFTFTDYTMDWVRQAPGKGLEWVADVNPNSGGSIYNQRFKGRFTLSVDRSKNTLYLQMNSLRAEDTAVYYCARNLGPSFYFDYWGQGTLVTVSS
VL: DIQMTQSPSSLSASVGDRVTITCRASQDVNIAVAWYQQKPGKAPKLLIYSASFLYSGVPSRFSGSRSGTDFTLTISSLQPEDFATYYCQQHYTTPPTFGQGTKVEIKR
notes: Pertuzumab heavy chain with common light chain CLC2
B4: Pmab-CLC6 (antibody, human IgG1, kappa, V domains shown)
VH: B3 VH
VL: B1 VL with Y94T
notes: Pertuzumab heavy chain with common light chain CLC6 (Y94T)
B5: Pmab-CLC3 (antibody, human IgG1, kappa, V domains shown)
VH: B3 VH
VL: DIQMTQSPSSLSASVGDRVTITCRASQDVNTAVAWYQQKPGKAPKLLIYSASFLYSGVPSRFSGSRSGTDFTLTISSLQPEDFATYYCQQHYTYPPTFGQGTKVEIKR
notes: Pertuzumab heavy chain with common light chain CLC3
B6: Pmab-CLC4 (antibody, human IgG1, kappa, V domains shown)
VH: B3 VH
VL: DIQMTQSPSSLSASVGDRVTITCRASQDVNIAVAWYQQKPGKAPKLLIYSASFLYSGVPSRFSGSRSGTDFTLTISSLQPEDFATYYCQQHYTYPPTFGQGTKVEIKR
notes: Pertuzumab heavy chain with common light chain CLC4

The target in one experiment is T1, HER2m1-Fc (human, UniProt P04626 23-652).
T1 construct: also called HERm1; Her2 ml
In words: indirect ELISA as in Example 2-6, EC50 compared. (In general: An ELISA detects its analyte on a solid surface through an enzyme-linked reagent.)
As for B1, the “fold reduction of affinity against the original Trastuzumab” value is roughly 1 fold.
Regarding B2, the “fold reduction of affinity against the original Trastuzumab” value is roughly 1 fold.

The target of a further experiment is T2, HER2m2-Fc (human, UniProt P04626 23-652).
T2 construct: also called HERm2; Herm2
Kind of experiment: indirect ELISA as in Example 2-6, EC50 compared.
For the molecule B3, the binding result is “binds”.
For the molecule B4, the binding result is reported as “binds”.
In the case of B5, the binding result was “binds”.
With B6, the binding result is “binds”.
